Common to all, as to assay type: cell-based
In one data set the target is T1, KDR (Homo sapiens, UniProt P35968).
T1 construct: To determine whether these receptor isoforms represent full-length VEGFR-2; expressed in transfected cells; host or cells: porcine aortic endothelial (PAE) cells
Nature of the data set: VEGF165-induced KDR phosphorylation (immunoprecipitation/immunoblot). Conditions: 1 μg/ml; PAE-KDR cells. As to the method: (§1) PDGF-BB-mediated phosphorylation was examined similarly in PAESPDGFR-β cells (anti-PDGFR-β; top right panel). […] PDGF-BB-mediated phosphorylation of PDGFR-β in PAE-PDGFR-β cells overexpressing TIMP3 (top right). KDR protein or PDGFR-β protein was analyzed by both immunoprecipitation and immunoblotting with antibodies specific for KDR (left) or for PDGFR-β (right; A and B, second panels from top). […] Total protein levels of ERK were determined by immunoblotting with antibodies specific for ERK1/2 (anti-ERK1/2; A and B, bottom).
(§2) Cell fractions, prepared as described earlier, or immunoprecipitates of the lysates with the indicated antibodies, were subjected to SDS-PAGE. Proteins were detected with horseradish peroxidase-conjugated antibodies specific for either rabbit or mouse IgG (Amersham Pharmacia, Piscataway, N.J.) followed by enhanced chemiluminescence.
In general terms: Immunoblotting shows a protein as a band on a membrane.

In data set [1] the test system is MS1 mouse endothelial cells. The data set can be described thus: MS1 endothelial cells infected with adenovirus expressing WT-TIMP3 or TIMP3Cys1-Ser: apoptosis and [3H]thymidine incorporation. As to conditions: MS1 cells infected with wild-type or mutant virus. As to the method:
MS1 mouse endothelial cells\(American Type Culture Collection, Manassas, Va.) were cultured until 80% confluent and infected with adenovirus as described. Cells were infected at 50 or 200 plaque-forming units per cell for 18 h. Medium was then replaced with fresh complete medium and left for 48 h until analysis.
A modified Boyden chamber assay for migration and proliferation assays were carried out as described.
A general note: Uptake of a labelled nucleoside into DNA is a usual measure of proliferation.

The target in a further data set is T2, PDGFR-β (Homo sapiens, UniProt P09619).
T2 construct: expressed in transfected cells; host or cells: porcine aortic endothelial (PAE) cells
Nature of the data set: PDGF-BB-induced PDGFR-β phosphorylation (immunoprecipitation/immunoblot). As to conditions: 1 μg/ml; PAE-PDGFR-β cells. How it is done:
as §1, §2

T1 sequence (P35968 20-1356): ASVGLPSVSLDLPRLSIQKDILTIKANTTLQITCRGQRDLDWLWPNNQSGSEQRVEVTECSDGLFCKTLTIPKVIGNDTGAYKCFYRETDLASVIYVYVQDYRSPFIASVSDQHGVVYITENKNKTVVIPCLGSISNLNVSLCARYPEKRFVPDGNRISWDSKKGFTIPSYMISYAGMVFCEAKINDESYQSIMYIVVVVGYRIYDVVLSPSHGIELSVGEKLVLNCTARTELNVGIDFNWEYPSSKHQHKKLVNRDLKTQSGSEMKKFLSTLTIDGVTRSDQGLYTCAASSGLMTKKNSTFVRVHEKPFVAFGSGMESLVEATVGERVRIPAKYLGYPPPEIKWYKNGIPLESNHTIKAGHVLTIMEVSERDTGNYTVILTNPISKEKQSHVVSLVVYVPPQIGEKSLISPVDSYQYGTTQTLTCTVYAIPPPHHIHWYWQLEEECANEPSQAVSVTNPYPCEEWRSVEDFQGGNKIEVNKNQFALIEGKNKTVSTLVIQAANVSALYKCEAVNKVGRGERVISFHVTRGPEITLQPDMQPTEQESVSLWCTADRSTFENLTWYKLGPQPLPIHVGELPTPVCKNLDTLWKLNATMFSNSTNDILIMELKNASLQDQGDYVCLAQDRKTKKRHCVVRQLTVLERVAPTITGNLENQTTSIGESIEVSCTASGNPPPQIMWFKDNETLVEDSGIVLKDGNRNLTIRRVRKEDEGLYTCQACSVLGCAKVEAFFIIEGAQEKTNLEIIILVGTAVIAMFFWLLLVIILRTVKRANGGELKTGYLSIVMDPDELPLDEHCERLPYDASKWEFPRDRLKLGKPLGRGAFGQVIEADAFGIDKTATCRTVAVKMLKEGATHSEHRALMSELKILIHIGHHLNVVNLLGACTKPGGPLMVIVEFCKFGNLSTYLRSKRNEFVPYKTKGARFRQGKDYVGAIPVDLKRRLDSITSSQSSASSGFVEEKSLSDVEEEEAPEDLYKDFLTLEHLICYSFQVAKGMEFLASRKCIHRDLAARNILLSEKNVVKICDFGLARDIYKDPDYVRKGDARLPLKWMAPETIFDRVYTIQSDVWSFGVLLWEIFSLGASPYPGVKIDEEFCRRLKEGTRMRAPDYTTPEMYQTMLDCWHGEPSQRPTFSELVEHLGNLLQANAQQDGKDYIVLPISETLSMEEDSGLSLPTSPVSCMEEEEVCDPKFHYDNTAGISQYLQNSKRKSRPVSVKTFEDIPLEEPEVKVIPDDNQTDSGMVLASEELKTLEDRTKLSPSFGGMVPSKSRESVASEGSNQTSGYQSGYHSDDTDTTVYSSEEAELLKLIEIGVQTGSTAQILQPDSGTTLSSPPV
T2 sequence (P09619 33-1106, species assumed): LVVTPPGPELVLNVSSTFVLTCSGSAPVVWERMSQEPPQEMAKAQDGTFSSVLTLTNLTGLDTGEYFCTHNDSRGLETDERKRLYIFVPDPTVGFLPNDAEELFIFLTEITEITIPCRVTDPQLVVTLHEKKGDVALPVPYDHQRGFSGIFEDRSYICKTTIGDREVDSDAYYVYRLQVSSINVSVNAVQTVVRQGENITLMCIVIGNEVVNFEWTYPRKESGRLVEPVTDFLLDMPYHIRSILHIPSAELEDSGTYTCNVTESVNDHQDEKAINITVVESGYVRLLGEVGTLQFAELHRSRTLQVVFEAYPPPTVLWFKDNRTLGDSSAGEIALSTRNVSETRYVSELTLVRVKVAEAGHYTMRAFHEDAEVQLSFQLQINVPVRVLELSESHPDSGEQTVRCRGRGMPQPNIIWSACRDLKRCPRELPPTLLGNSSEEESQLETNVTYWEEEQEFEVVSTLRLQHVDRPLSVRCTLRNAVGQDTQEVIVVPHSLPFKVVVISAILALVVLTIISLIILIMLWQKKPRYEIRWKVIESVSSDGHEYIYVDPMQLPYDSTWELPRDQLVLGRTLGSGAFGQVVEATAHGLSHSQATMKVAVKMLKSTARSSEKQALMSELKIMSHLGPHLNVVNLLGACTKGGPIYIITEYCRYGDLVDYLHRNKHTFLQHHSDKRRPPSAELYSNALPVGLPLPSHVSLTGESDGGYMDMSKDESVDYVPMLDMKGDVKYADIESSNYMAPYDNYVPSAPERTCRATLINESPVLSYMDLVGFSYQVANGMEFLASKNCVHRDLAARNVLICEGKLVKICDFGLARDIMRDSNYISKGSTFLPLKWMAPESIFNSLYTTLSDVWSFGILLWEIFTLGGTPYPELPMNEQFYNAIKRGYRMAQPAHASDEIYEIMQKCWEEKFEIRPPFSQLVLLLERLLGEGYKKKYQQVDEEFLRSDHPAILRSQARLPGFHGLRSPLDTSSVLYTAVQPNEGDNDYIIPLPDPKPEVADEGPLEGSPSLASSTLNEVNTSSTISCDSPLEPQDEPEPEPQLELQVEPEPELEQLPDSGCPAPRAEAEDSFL

B1: TIMP3: tissue inhibitor of metalloproteinases-3; recombinant human form expressed in NSO myeloma cells, or wild-type expressed in transfected cells (protein, listed as Homo sapiens)
chain: MTPWLGLIVLLGSWSLGDWGAEACTCSPSHPQDAFCNSDIVIRAKVVGKKLVKEGPFGTLVYTIKQMKMYRGFTKMPHVQYIHTEASESLCGLKLEVNKYQYLLTGRVYDGKMYTGLCNFVERWDQLTLSQRKGLNYRYHLGCNCKIKSCYYLPCFVTSKNECLWTDMLSNFGYPGYQSKHYACIRQKGGYCSWYRGWAPPDKSIINATDP
On to B1, for which, in the data set with KDR, the “inhibition of VEGF165-induced phosphorylation of KDR” value is “strongly inhibited”. For the same molecule, the “apoptosis after adenovirus infection” value in data set [1] is “No apoptosis was observed”. In addition, the “effect on phosphorylation of PDGFR-β stimulated with PDGF-BB” value in the data set with PDGFR-β is recorded as “did not affect”.

(Values after US8431396B2, “Anti-angiogenic peptides” (The Cleveland Clinic Foundation, priority 2003, dated 2013).)
